# Measurements: PMC2912450
# pKd: −log10 of the molar value.
# Target: His-tagged FliK (Salmonella) (UniProt P26416)
# Assay: SPR
row,Substance,pKd
1,FlhBc(N269A) (domain or fragment),4.98
2,FlhBc(P270A) (domain or fragment),5.80
